Experiment [1] deals with Recombinant Human TNF-α/TNFSF1A (human, UniProt P01375 77-233). The experiment can be described thus: cell-based or functional assay.
For another experiment, the target named is Recombinant Human IL-13 (human, UniProt P35225 35-146, limits assumed). The experiment can be described thus: Biacore SPR. The procedure:
The BIACORE assay (GE, Healthcare Piscataway, N.J.) determined the affinity of antibodies or DVD-Ig with kinetic measurements of on-rate and off-rate constants. Binding of antibodies or DVD-Ig proteins to a target antigen (for example, a purified recombinant target antigen) was determined by surface plasmon resonance-based measurements with a Biacore T200 using running HBS-EP+buffer from GE Healthcare at 25° C. All chemicals were obtained from GE Healthcare or otherwise from a different source as described in the text. For example, approximately 5000 RU of goat anti-mouse IgG, (Fcγ), fragment specific polyclonal antibody (Pierce Biotechnology Inc, Rockford, Ill.) diluted in 10 mM sodium acetate (pH 4.5) was directly immobilized across a CM5 research grade biosensor chip using a standard amine coupling kit according to manufacturer's instructions. Unreacted moieties on the biosensor surface were blocked with ethanolamine. Modified carboxymethyl dextran surface in flowcell 1 was used as a reference surface. Rate constants were derived by making kinetic binding measurements at different antigen concentrations ranging from 0.8-100 nM. Binding was recorded as a function of time and kinetic rate constants were calculated. In this assay, association rate was evaluated for 5 min and dissociation was monitored for 10 min. For kinetic screening analysis, rate equations derived from the 1:1 binding model were fitted simultaneously to association and dissociation phases of all injections (using global fit analysis with Rmax fit locally to account for capture variations) with the use of Biaevaluation software. Purified antibodies or DVD-Ig proteins were diluted in HEPES-buffered saline for capture across goat anti-mouse IgG specific reaction surfaces. Antibodies or DVD-Ig proteins to be captured as a ligand were injected over reaction matrices at a flow rate of 5 μl/minute. The association and dissociation rate constants, kₒₙ (M⁻¹ s⁻¹) and koff (s⁻¹) were determined under a continuous flow rate of 50 μl/minute. Rate constants were derived by making kinetic binding measurements at different antigen concentrations ranging from 0.8-100 nM. Binding was recorded as a function of time and kinetic rate constants were calculated. In this assay, association rate was evaluated for 5 min and dissociation was monitored for 10 min.
On the technique in general: Surface plasmon resonance follows binding to a sensor surface in real time, without labels.

The Kd is the concentration at which binding is half-saturated. In general, koff refers to a measure of how fast the partners let go of each other. A word on the kon: it is a measure of how fast the partners come together.

Chain of Recombinant Human IL-13 (P35225 35-146 limits assumed): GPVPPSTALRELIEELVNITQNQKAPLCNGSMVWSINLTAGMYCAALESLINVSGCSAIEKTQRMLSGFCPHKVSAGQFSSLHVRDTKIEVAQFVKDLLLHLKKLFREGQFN
Chain of Recombinant Human TNF-α/TNFSF1A (P01375 77-233 limits assumed): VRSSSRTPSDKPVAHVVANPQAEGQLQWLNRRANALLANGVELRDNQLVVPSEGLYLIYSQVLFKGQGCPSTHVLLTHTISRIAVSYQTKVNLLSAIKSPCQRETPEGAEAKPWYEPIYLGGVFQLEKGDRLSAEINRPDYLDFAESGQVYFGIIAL

B1: DVD3283 (bispecific antibody, IgG1)
VH: EVQLVQSGAEVKKPGASVKVSCKASGYTFANYGIIWVRQAPGQGLEWMGWINTYTGKPTYAQKFQGRVTMTTDTSTSTAYMELSSLRSEDTAVYYCARKLFTTMDVTDNAMDYWGQGTTVTVSSGGGGSGGGGSEVQLQQSGPELVTPGASVKISCKASGYTFTKYWLGWVKQSHGKSLEWIGDIYPGYDYTHYNEKFKDTATLTVDKSSSIAYMEIRGLTSEDSAVYYCARSDGSSTYWGQGTLVTVSA
VL: DIQMTQSPSSLSASVGDRVTITCRASQDISQYLNWYQQKPGKAPKLLIYYTSRLQSGVPSRFSGSGSGTDFTLTISSLQPEDFATYFCQQGNTWPPTFGQGTKLEIKRGGSGGGGSGDVQMIQSPSSLSASLGDIVTMTCTSSQNIVHSNGNTYLEWFQQKPGKAPKLLIYKVSNRFSGVPSRFSGSRYGTDFTLTISSLEDEDLATYFCFQVSHVPYTFGGGTKLEIKR
Consider B1, for which the “N-Terminal VD huTNFα Neutralization Assay IC50” value in experiment [1] amounted to 2 pM.

B2: DVD3284 (bispecific antibody, IgG1)
VH: EVQLVQSGAEVKKPGASVKVSCKASGYTFANYGIIWVRQAPGQGLEWMGWINTYTGKPTYAQKFQGRVTMTTDTSTSTAYMELSSLRSEDTAVYYCARKLFTTMDVTDNAMDYWGQGTTVTVSSASTKGPEVQLQQSGPELVTPGASVKISCKASGYTFTKYWLGWVKQSHGKSLEWIGDIYPGYDYTHYNEKFKDTATLTVDKSSSIAYMEIRGLTSEDSAVYYCARSDGSSTYWGQGTLVTVSA
VL: DIQMTQSPSSLSASVGDRVTITCRASQDISQYLNWYQQKPGKAPKLLIYYTSRLQSGVPSRFSGSGSGTDFTLTISSLQPEDFATYFCQQGNTWPPTFGQGTKLEIKRTVAAPDVQMIQSPSSLSASLGDIVTMTCTSSQNIVHSNGNTYLEWFQQKPGKAPKLLIYKVSNRFSGVPSRFSGSRYGTDFTLTISSLEDEDLATYFCFQVSHVPYTFGGGTKLEIKR
In the case of B2, the “N-Terminal VD huTNFα Neutralization Assay IC50” value in experiment [1] came to 12 pM.

B3: DVD3287 (bispecific antibody)
VH: EVQLVQSGAEVKKPGASVKVSCKASGYTFANYGIIWVRQAPGQGLEWMGWINTYTGKPTYAQKFQGRVTMTTDTSTSTAYMELSSLRSEDTAVYYCARKLFTTMDVTDNAMDYWGQGTTVTVSSASTKGPSVFPLAPEVQLQQSGPELVTPGASVKISCKASGYTFTKYWLGWVKQSHGKSLEWIGDIYPGYDYTHYNEKFKDTATLTVDKSSSIAYMEIRGLTSEDSAVYYCARSDGSSTYWGQGTLVTVSA
VL: B2 VL
On to B3, for which, in experiment [1], the “N-Terminal VD huTNFα Neutralization Assay IC50” value turned out to be 18 pM.

B4: DVD3286 (bispecific antibody, IgG1)
VH: B2 VH
VL: DIQMTQSPSSLSASVGDRVTITCRASQDISQYLNWYQQKPGKAPKLLIYYTSRLQSGVPSRFSGSGSGTDFTLTISSLQPEDFATYFCQQGNTWPPTFGQGTKLEIKRTVAAPSVFIFPPDVQMIQSPSSLSASLGDIVTMTCTSSQNIVHSNGNTYLEWFQQKPGKAPKLLIYKVSNRFSGVPSRFSGSRYGTDFTLTISSLEDEDLATYFCFQVSHVPYTFGGGTKLEIKR
Turning to B4, the “N-Terminal VD huTNFα Neutralization Assay IC50” value in experiment [1] turned out to be 2 pM.

B5: DVD3044 (bispecific antibody, IgG1)
VH: EVQLVESGGGLVQPGGSLRLSCAASGFSLTNNNVNWVRQAPGKGLEWVGGVWAGGATDYNSALKSRFTISRDNSKNTAYLQMNSLRAEDTAVYYCARDGGYSSSTLYAMDAWGQGTLVTVSSASTKGPEVQLVQSGAEVKKPGASVKVSCKASGYTFNNYGIIWVRQAPGQGLEWMGWINTYTGKPTYAQKFQGRVTMTTDTSTSTAYMELSSLRSEDTAVYYCARKLFNTVAVTDNAMDYWGQGTTVTVSS
VL: DIQMTQSPSSLSASVGDRVTITCRASEDIYNALAWYQQKPGKAPKLLIYNTDTLHTGVPSRFSGSGSGTDYTLTISSLQPEDFATYFCQHYFHYPRTFGQGTKVEIKRTVAAPDIQMTQSPSSLSASVGDRVTITCRASQDIENYLNWYQQKPGKAPKLLIYYTSRLQSGVPSRFSGSGSGTDFTLTISSLQPEDFATYFCQQGNTQPPTFGQGTKLEIKR
For B5, in experiment [1], the “C-Terminal VD huTNFα Neutralization Assay IC50” value was determined as 0.673 nM.

B6: DVD2766 (bispecific antibody, IgG1)
VH: EVQLVESGGGLVQPGGSLRLSCAASGFTFSNYGVEWVRQAPGKGLEWVSGIWADGSTHYADTVKSRFTISRDNSKNTLYLQMNSLRAEDTAVYYCAREWQHGPVAYWGQGTLVTVSSASTKGPEVQLVESGGGLVQPGGSLRLSCAASGFSLTNNNVNWVRQAPGKGLEWVGGVWAGGATDYNSALKSRFTISRDNSKNTAYLQMNSLRAEDTAVYYCARDGGYSSSTLYAMDAWGQGTLVTVSS
VL: DIQMTQSPSSLSASVGDRVTITCKASQLVSSAVAWYQQKPGKAPKLLIYWASTLHTGVPSRFSGSGSGTDFTLTISSLQPEDFATYYCQQHYRTPFTFGQGTKLEIKRTVAAPSVFIFPPDIQMTQSPSSLSASVGDRVTITCRASEDIYNALAWYQQKPGKAPKLLIYNTDTLHTGVPSRFSGSGSGTDYTLTISSLQPEDFATYFCQHYFHYPRTFGQGTKVEIKR
On to B6, for which the “N-Terminal VD huTNFα Neutralization Assay IC50” value in experiment [1] turned out to be 10 pM.

B7: DVD3043 (bispecific antibody, IgG1)
VH: EVQLVESGGGLVQPGGSLRLSCAASGFSLTNNNVNWVRQAPGKGLEWVGGVWAGGATDYNSALKSRFTISRDNSKNTAYLQMNSLRAEDTAVYYCARDGGYSSSTLYAMDAWGQGTLVTVSSGGGGSGGGGSEVQLVQSGAEVKKPGASVKVSCKASGYTFNNYGIIWVRQAPGQGLEWMGWINTYTGKPTYAQKFQGRVTMTTDTSTSTAYMELSSLRSEDTAVYYCARKLFNTVAVTDNAMDYWGQGTTVTVSS
VL: DIQMTQSPSSLSASVGDRVTITCRASEDIYNALAWYQQKPGKAPKLLIYNTDTLHTGVPSRFSGSGSGTDYTLTISSLQPEDFATYFCQHYFHYPRTFGQGTKVEIKRGGSGGGGSGDIQMTQSPSSLSASVGDRVTITCRASQDIENYLNWYQQKPGKAPKLLIYYTSRLQSGVPSRFSGSGSGTDFTLTISSLQPEDFATYFCQQGNTQPPTFGQGTKLEIKR
As for B7, the “C-Terminal VD huTNFα Neutralization Assay IC50” value in experiment [1] turned out to be 0.128 nM.

B8: DVD3267 (bispecific antibody, IgG1)
VH: EVQLVESGGGLVQPGGSLRLSCAASGFSFSKYWLGWVRQAPGKGLEWVSDIYPGYDYTHYNEKFKDRFTISADTSKNTAYLQMNSLRAEDTAVYYCARSDGSSTYWGQGTLVTVSSASTKGPSVFPLAPEVQLQQSGPELVTPGASVKISCKASGYTFTKYWLGWVKQSHGKSLEWIGDIYPGYDYTHYNEKFKDTATLTVDKSSSIAYMEIRGLTSEDSAVYYCARSDGSSTYWGQGTLVTVSA
VL: DIQMTQSPSSLSASVGDRVTITCTSSQNIVHSNGNTYLEWYQQKPGKAPKLLIYKVSNRFSGVPSRFSGSGSGTDFTLTISSLQPEDFATYYCFQVSHVPYTFGQGTKVEIKRTVAAPDVQMIQSPSSLSASLGDIVTMTCTSSQNIVHSNGNTYLEWFQQKPGKAPKLLIYKVSNRFSGVPSRFSGSRYGTDFTLTISSLEDEDLATYFCFQVSHVPYTFGGGTKLEIKR
As for B8, the “N-Terminal VD huTNFα Neutralization Assay IC50” value in experiment [1] was 2 pM.

B9: DVD3116 (bispecific antibody, IgG1)
VH: EVQLVQSGAEVKKPGASVKVSCKASGYTFNNYGIIWVRQAPGQGLEWMGWINTYTGKPTYAQKFQGRVTMTTDTSTSTAYMELSSLRSEDTAVYYCARKLFNTVAVTDNAMDYWGQGTTVTVSSASTKGPEVQLVQSGAEVKKPGASVKVSCKASGYTFTTYGVSWVRQAPGQGLEWMGEIYPGNYNTYYNEKFRGRVTMTTDTSTSTAYMELRSLRSDDTAVYYCARWRTSYFSDYGYFDYWGQGTTVTVSS
VL: DIQMTQSPSSLSASVGDRVTITCRASQDIENYLNWYQQKPGKAPKLLIYYTSRLQSGVPSRFSGSGSGTDFTLTISSLQPEDFATYFCQQGNTQPPTFGQGTKLEIKRTVAAPSVFIFPPDVVMTQSPLSLPVTLGQPASISCRSSQSLVHSHGNTYLHWYQQRPGQSPRLLIYTVSNRFSGVPDRFSGSGSGTDFTLKISRVEAEDVGVYYCSQSTHVPYTFGGGTKVEIKR
notes: DVD-Ig; wt hIgG1 + kappa constants
For B9, in the experiment with Recombinant Human IL-13, the Kd was under 0.017 nM, the koff is under 1e-06 s⁻¹ and the kon turned out to be 58000 M⁻¹ s⁻¹.

B10: DVD3173 (bispecific antibody, IgG1)
VH: EVQLVQSGAEVKKPGASVKVSCKASGYTFNNYGIIWVRQAPGQGLEWMGWINTYTGKPTYAQKFQGRVTMTTDTSTSTAYMELSSLRSEDTAVYYCARKLFNTVAVTDNAMDYWGQGTTVTVSSGGGGSGGGGSEVQLVQSGAEVKKPGASVKVSCKASGYTFTSYWMHWVRQAPGQGLEWIGNINPKGGSNIYNEKFQGRVTMTRDTSISTAYMELSRLRSDDTAVYYCARLDYFGDSFDLWGQGTTVTVSS
VL: DIQMTQSPSSLSASVGDRVTITCRASQDIENYLNWYQQKPGKAPKLLIYYTSRLQSGVPSRFSGSGSGTDFTLTISSLQPEDFATYFCQQGNTQPPTFGQGTKLEIKRGGSGGGGSGDIQMTQSPSSLSASVGDRVTITCRASQGIRNYLNWYQQKPGKAPKLLIYYASNLEVGVPSRFSGSGSGTDYTLTISSLQPEDFATYYCQQDNRFPYTFGGGTKVEIKR
notes: as for B9
Take B10: in the experiment with Recombinant Human IL-13, the Kd amounted to 0.37 nM, the off-rate constant (koff) was 8.8e-05 s⁻¹ and the kon worked out at 240000 M⁻¹ s⁻¹.

For the origin of these results see patent US20140271457A1 (AbbVie / Abbott, published 2014).
